What was measured:
Experiment in all cases: pull-down
[1] = target: EGFP-tagged NHSL1-F1 with all 11 EndoA2 binding sites and both FP4 motifs mutated (human)
[2] = target: EGFP-tagged NHSL1-F1 with all 11 EndoA2 binding sites mutated (human)
[3] = target: EGFP-tagged NHSL1-F1 with both FP4 motifs mutated (human)
[4] = target: EGFP-tagged NHSL1-F1 with the 9 EndoA2 sites that do not bind Abi mutated (human)
[5] = target: EGFP-tagged NHSL1-F1 with the two Abi binding sites mutated (human)

fold reduction in binding against wild-type NHSL1 [1]: 5 fold
fold reduction in binding against wild-type NHSL1 [2]: 5 fold
fold reduction in binding against wild-type NHSL1 [3]: 2 fold
fold reduction in binding against wild-type NHSL1 [4]: 5 fold
fold reduction in binding against wild-type NHSL1 [5]: 5 fold
Substance: Myc-tagged wild-type EndoA2 (endophilin A2) (from UniProt O35964 1-368) (natural protein)

Reference: publication doi:10.1101/2024.10.23.619882
